# Laboratory results from PMC12872393, “NCOA4 initiates ferritinophagy by avidly binding GATE16 using two short linear interaction motifs” (Life Science Alliance, 2026).
# Columns and labels:
# [1] = system: ferritin heavy chain (FTH1); assay: Western blot assay of ferritin degradation (ferritinophagy) in HeLa cell lines; assay type: cell-based; settings: EGFP-fused constructs stably integrated in NCOA4Δ HeLa cells; 40 μM FAC 24 h then 50 μM DFO 24 h; quantitative Western blot FTH1/tubulin, triplicate
# Description: Stably integrated NCOA4^383−522 cell lines were generated via retroviral transfection of the relevant NCOA4^383−522 construct in a CMV-enhancer–bearing pMRX plasmid (84573; Addgene) into NCOA4Δ HeLa cells (a gift from Prof. M. Poli, University of Brescia, Italy) ([Gryzik et al, 2021]). In this pMRX plasmid, EGFP was fused to the N terminus of NCOA4^383−522 and its mutants with a 13-residue GS linker. HeLa cells were transfected and selected as described previously ([Sena-Esteves & Gao, 2018]).
# After 24-h, all media were aspirated and replaced with either DMEM or DMEM supplemented with 40 μM ferric ammonium citrate (FAC). After an additional 24 h, all media were aspirated and replaced with either DMEM or DMEM supplemented with 50 μM deferoxamine (DFO). After an additional 24-h incubation, cells were trypsinized (200 μl, 5 min, 37°C), pelleted via centrifugation at 100g for 1 min, resuspended in Dulbecco’s PBS (D8537; Sigma-Aldrich), and pelleted as above before undergoing flash freezing in liquid nitrogen and storage at −80°C.
# Frozen cell pellets were resuspended in 100 μl 4X Laemmli buffer with Halt protease and phosphatase inhibitor (78440; Thermo Fisher Scientific) and lysed with a 29-gauge syringe. […] Ferritin levels were then measured by densitometry in FIJI ([Schindelin et al, 2012]) and normalized to tubulin intensity measured as above.
# lysosomes (LAMP1) = assay: Immunofluorescence colocalization of GFP-NCOA4^383−522 with lysosomes (LAMP1); assay type: cell-based; settings: GFP-fused constructs in NCOA4Δ HeLa cells, 50 μM DFO 24 h; anti-GFP and anti-LAMP1; area of overlap per nucleus and Manders' coefficient
# Method: For colocalization assays, NCOA4^383−522 cell lines were seeded on glass coverslips in a 12-well cell culture plate in DMEM as above. After 24 h, media were aspirated and replaced with DMEM supplemented with 50 μM DFO, and cells were incubated for an additional 24 h. Cells were then fixed with 4% paraformaldehyde in PBS (150 mM NaCl, 2.7 mM KCl, 10 mM Na2HPO4, 1.8 mM KH2PO4, pH 8.0) for 15 min at RT, quenched with 100 mM glycine in PBS for 10 min, and washed three times with PBS. Cells were next permeabilized with 0.5% Triton X-100 in PBS for 10 min, washed once with PBS, and blocked for 30 min in 2% BSA in PBS. Slides were next incubated in anti-GFP mouse antibody (sc-9996; Santa Cruz) diluted 1:200, anti-LAMP1 rabbit antibody (9091T; Cell Signaling) diluted 1:200, and Hoechst stain (H3570; Invitrogen) diluted 1:1,000, in 2% BSA in PBS for 1 h. […]
# All image analysis was conducted in FIJI ([Schindelin et al, 2012]). […] The overlapping regions were then measured, and the area per nucleus was recorded. […] For all images, threshold values were manually chosen for the pink and green channels, and Manders’ value, which calculates the fraction of the pink signal that overlaps green signal, was recorded.
molecule,measurement,setting,value
"NCOA4^383-522: NCOA4 fragment of residues 383–522; biotinylated AviTag-His6-NCOA4-MBP in vitro, EGFP fusion in cells (protein, biotin on the AviTag (BirA co-expressed); left off: AviTag, N-terminal, kept | His6, N-terminal, kept | MBP, C-terminal, kept, NCOA4 fragment of residues 383–522; biotinylated AviTag-His6-NCOA4-MBP in vitro, EGFP fusion in cells) SMVTEDWLVQNHQDPCKVEEVCRANEPCTSFAECVCDENCEKEALYKWLLKKEGKDKNGMPVEPKPEPEKHKDSLNMWLCPRKEVIEQTKAPKAMTPSRIADSFQVIKNSPLSEWLIRPPYKEGSPKEVPGTEDRAGKQK",ferritin degradation upon iron chelation with DFO (in words),[1],ferritin degradation was robust
same,NCOA4:lysosome colocalization (in words),lysosomes (LAMP1),significant colocalization
